Experimental data taken from patent publication US20130171170A1.

Molecular target: human CD22-beta-ECD-His tagged soluble antigen (human) (UniProt P20273)
Test: SPR (BIACORE 3000), antibody coupled to the chip, soluble CD22-beta-ECD-His injected, 25 C

human CD22-beta-ECD-His tagged soluble antigen (human), sequence (P20273 other isoform, or with tags, fused parts or gaps): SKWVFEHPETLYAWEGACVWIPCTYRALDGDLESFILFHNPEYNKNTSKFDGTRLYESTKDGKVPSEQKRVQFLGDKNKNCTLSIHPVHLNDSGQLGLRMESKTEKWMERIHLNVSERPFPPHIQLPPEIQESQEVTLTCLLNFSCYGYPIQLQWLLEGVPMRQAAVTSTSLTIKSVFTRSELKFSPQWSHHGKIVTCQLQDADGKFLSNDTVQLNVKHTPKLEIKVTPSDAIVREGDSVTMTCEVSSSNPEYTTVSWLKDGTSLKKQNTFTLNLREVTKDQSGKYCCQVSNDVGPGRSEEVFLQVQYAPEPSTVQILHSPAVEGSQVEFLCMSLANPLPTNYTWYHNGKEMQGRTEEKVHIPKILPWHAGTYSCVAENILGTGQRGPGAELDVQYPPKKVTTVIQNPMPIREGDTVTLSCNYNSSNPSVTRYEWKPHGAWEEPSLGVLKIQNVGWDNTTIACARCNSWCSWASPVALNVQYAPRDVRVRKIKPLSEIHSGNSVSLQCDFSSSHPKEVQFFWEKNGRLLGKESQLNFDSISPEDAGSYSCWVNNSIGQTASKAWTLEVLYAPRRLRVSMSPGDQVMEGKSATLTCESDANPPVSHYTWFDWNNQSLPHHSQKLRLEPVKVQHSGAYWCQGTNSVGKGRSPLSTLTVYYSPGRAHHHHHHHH

B1: anti-CD22 antibody RFB4 (antibody, from another filing, V domains shown)
VH: EVQLVESGGGLVKPGGSLKLSCAASGFAFSIYDMSWVRQTPEKRLEWVAYISSGGGTTYYPDTVKGRFTISRDNAKNTLYLQMSSLKSEDTAMYYCARHSGYGSSYGVLFAYWGQGTLVTVSA
VL: DIQMTQTTSSLSASLGDRVTISCRASQDISNYLNWYQQKPDGTVKLLIYYTSILHSGVPSRFSGSGSGTDYSLTISNLEQEDFATYFCQQGNTLPWTFGGGTKLEIK
Which Kd does the source give for B1 here?
The Kd was 4.2 nM.

And the koff?
The koff was 0.00014 s⁻¹.

And the kon?
The kon was 33000 M⁻¹ s⁻¹.
